Laboratory results: the Human Domainome abundance scans (Beltran et al. 2025)
± gives the uncertainty stated by the source.

B1: RAS guanyl-releasing protein 1, residues 539 to 593; numbered along this chain, O95267 (parent)
chain: GFPHNFQETTYLKPTFCDNCAGFLWGVIKQGYRCKDCGMNCHKQCKDLVVFECKK

Variants of: B1
Experiment: abundance fitness (aPCA) (normalised: wild type 0, dead -1); higher = more abundant; growth selection in yeast, the domain comes from the species named
Details: Homo sapiens

Question: For GFPHNFQETTYLKPTFCDNCAGFLWGVEKQGYRCKDCGMNCHKQCKDLVVFECKK [I28E], which abundance fitness is on record?
Answer: -0.341 ± 0.062

Question: Which abundance fitness does the source give for GFPHNFQETTYLKPTFCDNCAGFLWGVCKQGYRCKDCGMNCHKQCKDLVVFECKK [I28C] here?
Answer: -0.223 ± 0.14

Question: For GFPHNFQETTYLKPTFCDNCAGFLWGVIKQGYRCKDCGMNFHKQCKDLVVFECKK [C41F], which abundance fitness is on record?
Answer: -0.331 ± 0.095

Question: For GFPHNFQETTYLKPTFCDNRAGFLWGVIKQGYRCKDCGMNCHKQCKDLVVFECKK [C20R], which abundance fitness is on record?
Answer: -0.74 ± 0.22

Question: For GFPHNFQETTYLKPTFCDNCAGFLWGVIKQGYRCKDCGMNCHKTCKDLVVFECKK [Q44T], which abundance fitness is on record?
Answer: -0.226 ± 0.13

Question: For GFPHNFQETTYLKPTFCDNCAGFLWGVIKQGYRCKDCGMNCHKPCKDLVVFECKK [Q44P], which abundance fitness is on record?
Answer: -0.119 ± 0.079

Question: With GFPHNFQETTYLKPTFCDNCAGFLWGVIKQGYRCKDCGMNCHKCCKDLVVFECKK [Q44C] as the variant, how does the abundance fitness read?
Answer: 0.011 ± 0.12

Question: With GFPHNFQETTYLKPTFCDNCAGFLWGVIKQGYRCKDCGMNCHKNCKDLVVFECKK [Q44N] as the variant, how does the abundance fitness read?
Answer: -0.238 ± 0.35

Question: Which abundance fitness does the source give for GFPHNFQETTYLKPTFCDNCAGFLWGVIKQGYRCKDCGMNCHKQCKDLVVFENKK [C53N] here?
Answer: 0.13 ± 0.13

Question: For GFPHNFQETTYLKPTFCDNCQGFLWGVIKQGYRCKDCGMNCHKQCKDLVVFECKK [A21Q], which abundance fitness is on record?
Answer: -0.311 ± 0.15

Question: Which abundance fitness does the source give for GFPHNFQETTYLKPTFCDNCKGFLWGVIKQGYRCKDCGMNCHKQCKDLVVFECKK [A21K] here?
Answer: 0.019 ± 0.1

Question: With GFPHNFQETTYLKPTFCDNCHGFLWGVIKQGYRCKDCGMNCHKQCKDLVVFECKK [A21H] as the variant, how does the abundance fitness read?
Answer: -0.082 ± 0.13

Question: Which abundance fitness does the source give for GFPHNFQETTYLKPTFCDNCAGFLWGVIKQGYRCKDCGTNCHKQCKDLVVFECKK [M39T] here?
Answer: -0.142 ± 0.048

Question: For GFPHNFQETTYLKPTFCDNCAGFLWGVIKQGYRCKDCGMNCHKQCKDLVVFECKH [K55H], which abundance fitness is on record?
Answer: -0.597 ± 0.26

Question: With GFPHNFQETTYLKPTFCDNCAGFLWGVIKQGYRCKDCGMNCHKQFKDLVVFECKK [C45F] as the variant, how does the abundance fitness read?
Answer: -0.514 ± 0.056

Question: For GFPSNFQETTYLKPTFCDNCAGFLWGVIKQGYRCKDCGMNCHKQCKDLVVFECKK [H4S], which abundance fitness is on record?
Answer: -0.92 ± 0.069

Question: Which abundance fitness does the source give for GFPLNFQETTYLKPTFCDNCAGFLWGVIKQGYRCKDCGMNCHKQCKDLVVFECKK [H4L] here?
Answer: -1.07 ± 0.27

Question: Which abundance fitness does the source give for GFPHNFQETTYLKPTFPDNCAGFLWGVIKQGYRCKDCGMNCHKQCKDLVVFECKK [C17P] here?
Answer: -1.13 ± 0.33

Question: For GFPHNFQETTYLKPTFWDNCAGFLWGVIKQGYRCKDCGMNCHKQCKDLVVFECKK [C17W], which abundance fitness is on record?
Answer: -1.27 ± 0.34

Question: With GFPHNFQETTYLKPTFCDNCAGFLWGHIKQGYRCKDCGMNCHKQCKDLVVFECKK [V27H] as the variant, how does the abundance fitness read?
Answer: -0.516 ± 0.37

Question: For GFPHNFQETTYLKPTFCDNCAGFLWGIIKQGYRCKDCGMNCHKQCKDLVVFECKK [V27I], which abundance fitness is on record?
Answer: -0.119 ± 0.1

Question: Which abundance fitness does the source give for GFPHNFQETTYLKPTFCDNCAGFLWGDIKQGYRCKDCGMNCHKQCKDLVVFECKK [V27D] here?
Answer: -0.657 ± 0.17

Question: Which abundance fitness does the source give for GFPHNFQETTYLKPTFCDNCAGFLWGWIKQGYRCKDCGMNCHKQCKDLVVFECKK [V27W] here?
Answer: -0.22 ± 0.12

Question: With GFPHNFQETTYLKPTFCDNCAGFLWGVIKQGYRCNDCGMNCHKQCKDLVVFECKK [K35N] as the variant, how does the abundance fitness read?
Answer: -0.297 ± 0.11

Question: Which abundance fitness does the source give for GFPHNFQETTYLKPTFCDNCAGFLWGVIKQGYRCRDCGMNCHKQCKDLVVFECKK [K35R] here?
Answer: -0.004 ± 0.067

Question: Which abundance fitness does the source give for GFPHNFQETTYLKPTFCDNCAGFLWGVIKQGYRCEDCGMNCHKQCKDLVVFECKK [K35E] here?
Answer: 0.039 ± 0.087

Question: For GFPHNFQETTYLKPTFCDNCAGFLWGVIKQKYRCKDCGMNCHKQCKDLVVFECKK [G31K], which abundance fitness is on record?
Answer: -0.748 ± 0.13

Question: For GFPHNFQETTYLKPTFCDNCAGFLWGVIKQYYRCKDCGMNCHKQCKDLVVFECKK [G31Y], which abundance fitness is on record?
Answer: -0.06 ± 0.13

Question: For GFPHNFQETTYLKPTFCDNCAGFLWGVIKQVYRCKDCGMNCHKQCKDLVVFECKK [G31V], which abundance fitness is on record?
Answer: -0.479 ± 0.067

Question: Which abundance fitness does the source give for GFPHNFQETTYLKPTFCDNCAGFLWGVIKQWYRCKDCGMNCHKQCKDLVVFECKK [G31W] here?
Answer: -0.901 ± 0.21

Question: Which abundance fitness does the source give for GFPHNFQETTYLKRTFCDNCAGFLWGVIKQGYRCKDCGMNCHKQCKDLVVFECKK [P14R] here?
Answer: -0.739 ± 0.065

Question: Which abundance fitness does the source give for GFPHNFQETTYLKYTFCDNCAGFLWGVIKQGYRCKDCGMNCHKQCKDLVVFECKK [P14Y] here?
Answer: -0.397 ± 0.071

Question: For GFPHNFQETTYLKETFCDNCAGFLWGVIKQGYRCKDCGMNCHKQCKDLVVFECKK [P14E], which abundance fitness is on record?
Answer: -0.886 ± 0.18

Question: With GFPHNFQETTYLKPTFCDNCAGFLWGVIKQGYRCKDCGMNCHKQCKDLVVEECKK [F51E] as the variant, how does the abundance fitness read?
Answer: -0.044 ± 0.098

Question: For GFPHNFQETTYLKPTFCDNCAGFLWGVIKQGYRCKDCGMNCHKQCKDLVVSECKK [F51S], which abundance fitness is on record?
Answer: 0.011 ± 0.082

Question: With GFPHNFDETTYLKPTFCDNCAGFLWGVIKQGYRCKDCGMNCHKQCKDLVVFECKK [Q7D] as the variant, how does the abundance fitness read?
Answer: -0.204 ± 0.14

Question: For GFPHNFPETTYLKPTFCDNCAGFLWGVIKQGYRCKDCGMNCHKQCKDLVVFECKK [Q7P], which abundance fitness is on record?
Answer: -0.961 ± 0.32

Question: Which abundance fitness does the source give for GFPHNFAETTYLKPTFCDNCAGFLWGVIKQGYRCKDCGMNCHKQCKDLVVFECKK [Q7A] here?
Answer: -0.027 ± 0.065

Question: For GFPHNFIETTYLKPTFCDNCAGFLWGVIKQGYRCKDCGMNCHKQCKDLVVFECKK [Q7I], which abundance fitness is on record?
Answer: -0.217 ± 0.15

Question: With GFPHNFQEQTYLKPTFCDNCAGFLWGVIKQGYRCKDCGMNCHKQCKDLVVFECKK [T9Q] as the variant, how does the abundance fitness read?
Answer: -0.056 ± 0.062

Question: With GFPHNFQEDTYLKPTFCDNCAGFLWGVIKQGYRCKDCGMNCHKQCKDLVVFECKK [T9D] as the variant, how does the abundance fitness read?
Answer: -0.131 ± 0.11

Question: For GFVHNFQETTYLKPTFCDNCAGFLWGVIKQGYRCKDCGMNCHKQCKDLVVFECKK [P3V], which abundance fitness is on record?
Answer: 0.064 ± 0.076

Question: With GFPHNFQETTYLKPTFCDNCAGFLWGVIKQGYRFKDCGMNCHKQCKDLVVFECKK [C34F] as the variant, how does the abundance fitness read?
Answer: -0.729 ± 0.071

Question: For GFPHNFQETTYLKPTFCDNCAGFLWGVIKQGYRIKDCGMNCHKQCKDLVVFECKK [C34I], which abundance fitness is on record?
Answer: -0.724 ± 0.32

Question: Which abundance fitness does the source give for GFPHNFQETTYLKPTFCDNCAGFLWGVIKQGYRWKDCGMNCHKQCKDLVVFECKK [C34W] here?
Answer: -0.891 ± 0.23

Question: For GFPHNFQETVYLKPTFCDNCAGFLWGVIKQGYRCKDCGMNCHKQCKDLVVFECKK [T10V], which abundance fitness is on record?
Answer: -0.95 ± 0.17

Question: For GFPHNFQETTYLKPTFCDNCAGFLWGVIKQGYRCKDCGMNCHKQCKDLVIFECKK [V50I], which abundance fitness is on record?
Answer: -0.541 ± 0.23

Question: For GFPHNFQETTYLKPTFCDNCAGFLWGVIKQGYRCKDCGMNCHKQCKDLVYFECKK [V50Y], which abundance fitness is on record?
Answer: -0.231 ± 0.12
